{
  "source": "paper PMC4070987",
  "origin": "cited, not measured here",
  "molecular_target": "alkaline protease inhibitor (Pseudomonas aeruginosa) (UniProt Q03026)",
  "sequence (Q03026 27-131)": "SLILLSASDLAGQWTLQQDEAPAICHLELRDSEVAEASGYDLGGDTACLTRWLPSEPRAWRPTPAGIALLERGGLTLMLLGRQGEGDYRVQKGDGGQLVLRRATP",
  "data": [
    {"substance": "alkaline protease (AP) (from UniProt Q03023)", "values": [
      {"measurement": "Kd", "value": 4, "unit": "pM"}
    ]}
  ]
}
